Assay results from PMC3272265.

Assays:
[1] = mating with proven fertile normal males; conditions: glycan lost; control: co-caged transgenic control females
[2] = two-cell embryos after overnight incubation; conditions: glycan lost; control: normal eggs
[3] = displacement of Hoechst-labelled sperm by Acr3-EGFP sperm; conditions: glycan lost; control: normal eggs
[4] = EGFP acrosome status and Alexa 568-SBTI staining; conditions: glycan lost; control: normal eggs

B1: ZP3: Zp3Mut (protein)
parent chain: MASSYFLFLCLLLCGGPELCNSQTLWLLPGGTPTPVGSSSPVKVECLEAELVVTVSRDLFGTGKLVQPGDLTLGSEGCQPRVSVDTDVVRFNAQLHECSSRVQMTKDALVYSTFLLHDPRPVSGLSILRTNRVEVPIECRYPRQGNVSSHPIQPTWVPFRATVSSEEKLAFSLRLMEENWNTEKSAPTFHLGEVAHLQAEVQTGSHLPLQLFVDHCVATPSPLPDPNSSPYHFIVDFHGCLVDGLSESFSAFQVPRPRPETLQFTVDVFHFANSSRNTLYITCHLKVAPANQIPDKLNKACSFNKTSQSWLPVEGDADICDCCSHGNCSNSSSSQFQIHGPRQWSKLVSRNRRHVTDEADVTVGPLIFLGKANDQTVEGWTASAQTSVALGLGLATVAFLTLAAIVLAVTRKCHSSSYLVSLPQ
no change: other: in vivo fertility (litter size) [1] | other: in vitro fertilisation rate [2] | other: reversibility of sperm binding [3] | other: induction of sperm acrosome exocytosis [4]
